Data on 2 substances can be found in IntAct's records for PubMed 22751141.

For this experiment, the target named is GATA3, P23771-2.
Chain of GATA3, P23771-2 (P23771 other isoform, or with tags, fused parts or gaps): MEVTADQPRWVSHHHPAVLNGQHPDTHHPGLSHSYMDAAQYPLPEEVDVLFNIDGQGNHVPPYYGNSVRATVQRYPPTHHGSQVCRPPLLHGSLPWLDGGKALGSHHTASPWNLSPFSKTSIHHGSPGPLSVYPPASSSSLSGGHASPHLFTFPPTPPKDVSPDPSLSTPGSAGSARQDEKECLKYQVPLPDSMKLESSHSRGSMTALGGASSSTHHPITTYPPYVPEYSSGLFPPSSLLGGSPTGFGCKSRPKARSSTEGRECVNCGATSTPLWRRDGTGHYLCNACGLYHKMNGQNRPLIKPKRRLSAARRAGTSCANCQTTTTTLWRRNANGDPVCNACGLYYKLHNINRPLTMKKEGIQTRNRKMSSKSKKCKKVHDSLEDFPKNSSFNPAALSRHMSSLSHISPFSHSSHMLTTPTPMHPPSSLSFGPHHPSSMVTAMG

For the substance “Transcription factor SOX-4 (Mus musculus), Q06831 F66A;M67A”, the “effect of a mutation on the interaction” value was “decreasing interaction”. In the case of “Transcription factor SOX-4 (Mus musculus), Q06831 R61A;P62A” it was “decreasing interaction”.
